One data set relates to biotinyl-Trp-oxazolone. Nature of the data set: self-aminoacylation, catalytic enhancement (BWO) (fold over background); higher = more active; k-Seq, kA / k0A0; sequences stand for … in GGGAAUGGAUCCACAUCUACGAAUUC…UUCACUGCAGACUUGACGAAGCUG
In outline:
(§1)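 Mutagenized RNA pools (0.43 μM; 21-nt variable region) were treated with 2–1250 μM of each biotinyl-aminoacyl-oxazolone. Conditions were 50 μL HEPES/NaCl/KCl/MgCl2/CaCl2 buffer, 5% acetonitrile, pH 6.9–7.0, room temperature, 90 minutes. Catalytic enhancement, the median kA relative to the uncatalyzed rate, was derived from streptavidin capture, qPCR and Illumina sequencing.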

The test system of a further data set is biotinyl-Met-oxazolone. Briefly: self-aminoacylation, catalytic enhancement (BMO) (fold over background); higher = more active; k-Seq, kA / k0A0; sequences stand for … in GGGAAUGGAUCCACAUCUACGAAUUC…UUCACUGCAGACUUGACGAAGCUG
In outline:
as §1

The next data set relates to biotinyl-Ile-oxazolone. Briefly: self-aminoacylation, catalytic enhancement (BIO) (fold over background); higher = more active; k-Seq, kA / k0A0; sequences stand for … in GGGAAUGGAUCCACAUCUACGAAUUC…UUCACUGCAGACUUGACGAAGCUG
In short, it runs like this: as §1

The test system of a further data set is biotinyl-Val-oxazolone. Nature of the data set: self-aminoacylation, catalytic enhancement (BVO) (fold over background); higher = more active; k-Seq, kA / k0A0; sequences stand for … in GGGAAUGGAUCCACAUCUACGAAUUC…UUCACUGCAGACUUGACGAAGCUG
In outline: as §1

Another data set concerns biotinyl-Leu-oxazolone. Briefly: self-aminoacylation, catalytic enhancement (BLO) (fold over background); higher = more active; k-Seq, kA / k0A0; sequences stand for … in GGGAAUGGAUCCACAUCUACGAAUUC…UUCACUGCAGACUUGACGAAGCUG
In short, it runs like this: as §1

The subject of another data set is biotinyl-Phe-oxazolone. Nature of the data set: self-aminoacylation, catalytic enhancement (BFO) (fold over background); higher = more active; k-Seq, kA / k0A0; sequences stand for … in GGGAAUGGAUCCACAUCUACGAAUUC…UUCACUGCAGACUUGACGAAGCUG
In short, it runs like this: as §1

The results in this text go back to the supplement of paper PMC9233669.

Variants at the floor of the assay were thinned out.

As for “CUUACCCUGGUCAUCGAAUGA [Fam2.1 aminoacylation ribozyme variant]”, the self-aminoacylation in the data set on biotinyl-Trp-oxazolone was 0.668; with biotinyl-Met-oxazolone, 0.915; in the data set with biotinyl-Ile-oxazolone, 1.01; in the data set on biotinyl-Val-oxazolone, 0.985; with biotinyl-Leu-oxazolone it was 0.937; with biotinyl-Phe-oxazolone, 1.02.

“CUUACCCUGGUCAUCGAGUGU [Fam2.1 aminoacylation ribozyme variant]”: the self-aminoacylation with biotinyl-Trp-oxazolone was 25.6; with biotinyl-Met-oxazolone it was 26.4; in the data set with biotinyl-Ile-oxazolone, 8.72; in the data set on biotinyl-Val-oxazolone, 9.84; in the data set with biotinyl-Leu-oxazolone, 24.6; with biotinyl-Phe-oxazolone, 102.

Consider “CUUACCCUGGUCAUCGAUUGA [Fam2.1 aminoacylation ribozyme variant]”, for which the self-aminoacylation stood at 1.34 with biotinyl-Trp-oxazolone; 0.863 in the data set on biotinyl-Met-oxazolone; 0.751 in the data set on biotinyl-Ile-oxazolone; 0.929 in the data set with biotinyl-Val-oxazolone; 0.839 in the data set with biotinyl-Leu-oxazolone; 0.863 in the data set with biotinyl-Phe-oxazolone.

For the sequence “CUUACCCUGGUCAUCGUGUGA [Fam2.1 aminoacylation ribozyme variant]”, the self-aminoacylation with biotinyl-Trp-oxazolone worked out at 2.98; with biotinyl-Met-oxazolone it was 2.8; in the data set with biotinyl-Ile-oxazolone, 1.79; in the data set on biotinyl-Val-oxazolone, 2.11; in the data set on biotinyl-Leu-oxazolone it was 2.87; with biotinyl-Phe-oxazolone it was 11.1.

As to “CUUACCCUGGUCAUUGAGUGA [Fam2.1 aminoacylation ribozyme variant]”, the self-aminoacylation with biotinyl-Trp-oxazolone is 8.86; with biotinyl-Met-oxazolone, 7.17; in the data set on biotinyl-Ile-oxazolone it was 3.9; in the data set with biotinyl-Val-oxazolone it was 3.81; in the data set on biotinyl-Leu-oxazolone, 7.58; in the data set on biotinyl-Phe-oxazolone it was 22.8.

Take “CUUACCCUGGUCCUCGAGUGA [Fam2.1 aminoacylation ribozyme variant]”: the self-aminoacylation in the data set with biotinyl-Trp-oxazolone was 5.89; in the data set with biotinyl-Met-oxazolone, 5.36; in the data set with biotinyl-Ile-oxazolone it was 2.44; in the data set on biotinyl-Val-oxazolone, 3.36; with biotinyl-Leu-oxazolone, 4.96; in the data set on biotinyl-Phe-oxazolone, 28.8.

For “CUUACCCUUGUCAUCGAGUGA [Fam2.1 aminoacylation ribozyme variant]”, the self-aminoacylation in the data set on biotinyl-Trp-oxazolone was determined as 5.14; in the data set with biotinyl-Met-oxazolone it was 4.62; with biotinyl-Ile-oxazolone it was 2.56; with biotinyl-Val-oxazolone, 3.03; in the data set on biotinyl-Leu-oxazolone it was 4.14; in the data set with biotinyl-Phe-oxazolone it was 7.91.

With “CUUCAACUAGGUCAUCGGGUG [Fam2.2 aminoacylation ribozyme variant]”, the self-aminoacylation in the data set with biotinyl-Trp-oxazolone is 4.93; in the data set on biotinyl-Met-oxazolone, 5.42; in the data set on biotinyl-Ile-oxazolone, 3.17; with biotinyl-Val-oxazolone, 3.22; in the data set with biotinyl-Leu-oxazolone it was 6.16; in the data set on biotinyl-Phe-oxazolone, 31.8.

Turning to “CUUCACCUAAGUCAUCGGGUG [Fam2.2 aminoacylation ribozyme variant]”, the self-aminoacylation was 5.5 with biotinyl-Trp-oxazolone; 6.58 with biotinyl-Met-oxazolone; 4.46 in the data set with biotinyl-Ile-oxazolone; 5.22 in the data set with biotinyl-Val-oxazolone; 8.79 with biotinyl-Leu-oxazolone; 42.2 in the data set with biotinyl-Phe-oxazolone.

In the case of “CUUCACCUAGCUCAUCGGGUG [Fam2.2 aminoacylation ribozyme variant]”, the self-aminoacylation worked out at 2.82 with biotinyl-Trp-oxazolone; 2.21 in the data set on biotinyl-Met-oxazolone; 1.76 in the data set with biotinyl-Ile-oxazolone; 2.37 with biotinyl-Val-oxazolone; 2.43 in the data set with biotinyl-Leu-oxazolone; 9.04 in the data set on biotinyl-Phe-oxazolone.

As to “CUUCACCUAGGUCAUCCGGUG [Fam2.2 aminoacylation ribozyme variant]”, the self-aminoacylation in the data set on biotinyl-Trp-oxazolone is 6.39; with biotinyl-Met-oxazolone, 6.47; in the data set with biotinyl-Ile-oxazolone, 5.77; with biotinyl-Val-oxazolone, 4.94; with biotinyl-Leu-oxazolone, 8.19; in the data set with biotinyl-Phe-oxazolone it was 34.5.

For the sequence “CUUCACCUAGGUCAUCGGGUA [Fam2.2 aminoacylation ribozyme variant]”, the self-aminoacylation with biotinyl-Trp-oxazolone was 5.72; in the data set on biotinyl-Met-oxazolone, 6.65; with biotinyl-Ile-oxazolone, 4.43; in the data set with biotinyl-Val-oxazolone, 5.19; in the data set with biotinyl-Leu-oxazolone, 7.28; in the data set on biotinyl-Phe-oxazolone it was 23.4.

“CUUCACCUAGGUCAUGGGGUG [Fam2.2 aminoacylation ribozyme variant]”: the self-aminoacylation turned out to be 3.7 in the data set on biotinyl-Trp-oxazolone; 2.84 with biotinyl-Met-oxazolone; 2.5 in the data set with biotinyl-Ile-oxazolone; 2.7 in the data set with biotinyl-Val-oxazolone; 4.06 in the data set with biotinyl-Leu-oxazolone; 11.6 in the data set on biotinyl-Phe-oxazolone.

Regarding “CUUCAUCUAGGUCAUCGGGUG [Fam2.2 aminoacylation ribozyme variant]”, the self-aminoacylation turned out to be 5.49 with biotinyl-Trp-oxazolone; 6.52 in the data set with biotinyl-Met-oxazolone; 4.55 in the data set on biotinyl-Ile-oxazolone; 4.7 with biotinyl-Val-oxazolone; 7.99 with biotinyl-Leu-oxazolone; 38.8 in the data set with biotinyl-Phe-oxazolone.

Consider “CUUCCCCUAGGUCAUCGGGUG [Fam2.2 aminoacylation ribozyme variant]”, for which the self-aminoacylation is 7.71 in the data set with biotinyl-Trp-oxazolone; 8.7 in the data set with biotinyl-Met-oxazolone; 4.92 in the data set on biotinyl-Ile-oxazolone; 5.07 in the data set on biotinyl-Val-oxazolone; 10.5 in the data set on biotinyl-Leu-oxazolone; 60.1 in the data set on biotinyl-Phe-oxazolone.

With “CUUCCCCUGGUCAUCGAGUGA [Fam2.1 aminoacylation ribozyme variant]”, the self-aminoacylation with biotinyl-Trp-oxazolone is 7.51; in the data set with biotinyl-Met-oxazolone it was 5.92; in the data set on biotinyl-Ile-oxazolone, 3.23; in the data set with biotinyl-Val-oxazolone it was 3.42; in the data set with biotinyl-Leu-oxazolone, 6.32; with biotinyl-Phe-oxazolone it was 40.1.

Take “CUUCGUCAAACAAUCGGUCUG [Fam1A.1 aminoacylation ribozyme variant]”: the self-aminoacylation in the data set on biotinyl-Trp-oxazolone came to 2.23; with biotinyl-Met-oxazolone it was 1.65; with biotinyl-Ile-oxazolone, 1.87; with biotinyl-Val-oxazolone, 1.55; with biotinyl-Leu-oxazolone, 1.62; with biotinyl-Phe-oxazolone it was 9.15.

Consider “CUUCUUCAAACAACCGGUCUG [Fam1A.1 aminoacylation ribozyme variant]”, for which the self-aminoacylation came to 0.846 with biotinyl-Trp-oxazolone; 0.98 with biotinyl-Met-oxazolone; 1.11 in the data set on biotinyl-Ile-oxazolone; 0.949 in the data set on biotinyl-Val-oxazolone; 0.961 in the data set with biotinyl-Leu-oxazolone; 0.852 with biotinyl-Phe-oxazolone.

Take “CUUCUUCAAACAAUAGGUCUG [Fam1A.1 aminoacylation ribozyme variant]”: the self-aminoacylation with biotinyl-Trp-oxazolone was 0.568; in the data set with biotinyl-Met-oxazolone it was 0.817; with biotinyl-Ile-oxazolone it was 0.883; in the data set on biotinyl-Val-oxazolone it was 0.832; in the data set with biotinyl-Leu-oxazolone it was 0.825; in the data set with biotinyl-Phe-oxazolone, 0.983.

As for “CUUCUUCAAACAAUCGGUCGG [Fam1A.1 aminoacylation ribozyme variant]”, the self-aminoacylation was determined as 7.44 in the data set on biotinyl-Trp-oxazolone; 1.12 with biotinyl-Met-oxazolone; 0.873 with biotinyl-Ile-oxazolone; 0.789 in the data set on biotinyl-Val-oxazolone; 1.24 in the data set on biotinyl-Leu-oxazolone; 10.9 in the data set with biotinyl-Phe-oxazolone.

Take “CUUCUUCAAACAAUCUGUCUG [Fam1A.1 aminoacylation ribozyme variant]”: the self-aminoacylation in the data set with biotinyl-Trp-oxazolone worked out at 1.15; in the data set with biotinyl-Met-oxazolone it was 0.587; in the data set on biotinyl-Ile-oxazolone, 0.768; in the data set with biotinyl-Val-oxazolone, 0.698; with biotinyl-Leu-oxazolone, 0.748; in the data set with biotinyl-Phe-oxazolone, 2.27.

For “CUUCUUCAAACCAUCGGUCUG [Fam1A.1 aminoacylation ribozyme variant]”, the self-aminoacylation in the data set with biotinyl-Trp-oxazolone was 0.509; in the data set on biotinyl-Met-oxazolone, 0.682; in the data set with biotinyl-Ile-oxazolone, 0.856; with biotinyl-Val-oxazolone, 0.775; in the data set with biotinyl-Leu-oxazolone it was 0.722; with biotinyl-Phe-oxazolone, 0.739.

Turning to “GAGUUUGCGAAUAGUCGCAAG [Fam3.1 aminoacylation ribozyme variant]”, the self-aminoacylation with biotinyl-Trp-oxazolone amounted to 2.35; in the data set on biotinyl-Met-oxazolone it was 1.8; with biotinyl-Ile-oxazolone, 1.68; with biotinyl-Val-oxazolone it was 1.56; in the data set on biotinyl-Leu-oxazolone it was 1.76; with biotinyl-Phe-oxazolone, 7.65.

“GAGUUUGCUAAUAGUCGCAAA [Fam3.1 aminoacylation ribozyme variant]”: the self-aminoacylation was 1.59 with biotinyl-Trp-oxazolone; 1.64 in the data set with biotinyl-Met-oxazolone; 2.47 with biotinyl-Ile-oxazolone; 2.15 in the data set on biotinyl-Val-oxazolone; 1.93 with biotinyl-Leu-oxazolone; 3.15 in the data set with biotinyl-Phe-oxazolone.

Take “GAGUUUGCUAAUAGUCGCGAG [Fam3.1 aminoacylation ribozyme variant]”: the self-aminoacylation in the data set with biotinyl-Trp-oxazolone is 2.17; with biotinyl-Met-oxazolone, 1.63; in the data set on biotinyl-Ile-oxazolone, 1.55; with biotinyl-Val-oxazolone, 1.38; in the data set on biotinyl-Leu-oxazolone it was 1.47; with biotinyl-Phe-oxazolone it was 1.76.
